From patent publication US6528633

Tests used:
[1] = system: clam E3-C/cyclosome complex, activated, partially purified
[2] = system: non-specific ubiquitin-protein ligase (E3) from clam oocyte Fraction 1A

Chain of recombinant human Ubc4 homolog, UbcH5 (chain, as listed by the source): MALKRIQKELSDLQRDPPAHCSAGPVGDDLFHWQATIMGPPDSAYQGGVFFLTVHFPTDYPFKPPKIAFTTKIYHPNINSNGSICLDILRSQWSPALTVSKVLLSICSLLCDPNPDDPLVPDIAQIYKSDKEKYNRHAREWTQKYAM

recombinant human Ubc4 homolog, UbcH5
stimulation of cyclin-ubiquitin ligation [1]: UbcH5 caused some stimulation of cyclin-ubiquitin ligation by the clam E3-C/cyclosome complex, but the amount of conjugates formed and their size ... were much lower than those obtained with the recombinant clam protein | ligation of 125I-ubiquitin to high molecular weight conjugates [2]: UbcH5 strongly stimulated the ligation of 125I-ubiquitin to high molecular weight conjugates in the presence of non-specific E3 from clam oocytes
